# Measurements published in patent publication US11179342B2, “Peptide coacervates and methods of use thereof” (NANYANG TECHNOLOGICAL UNIVERSITY, priority 2018, dated 2021).
# “Also recorded” adds a separate entry of the source. Residues, ends and D or L forms follow the SMILES beside them.
# B1: N-terminal (M1-R81) fragment: DgHBP-2 N-terminal trypsin fragment lacking the modular repeats (protein)
# chain: MQFFGAGPFNTAHHSAVSDAAAAHHDAAGEYAQNAATGLLDTHHNENHDMTHDLANGYGLHEHDEQHHGLADGLHQEYAAR
# modifications: N-terminal fragment of HBP-2
# notes: DgHBP-2 N-terminal trypsin fragment lacking the modular repeats
# Legend:
# NIH3T3 mouse fibroblasts = assay: MTT assay; type: cell-based
# Method: NIH3T3 mouse fibroblasts were used to estimate the cytotoxicity of DgHBP-2 peptide and coacervates. The fibroblasts were cultivated using Dulbecco's modified eagle medium supplemented with 10% of fetal bovine serum, 100 units/mL of penicillin and 100 μg/mL of streptomycin in a 37° C. incubator with 5% CO2. 100 μL of cells with a cell density of 1×10^4 cells/mL were seeded onto a 96-well plate (Thermo Fisher Scientific). After 24 hours, the cell culture media was substituted with 100 μL of fresh media containing different concentration of peptide or insulin-loaded coacervates. After another 24 hours, 10 μL of MTT solution (concentration: 5 mg/mL) was added into each well. Cell culture media and the excess MTT was then removed after 4 hours of incubation. 100 μL of DMSO was subsequently added into each well to dissolve the formazan crystals. The dissolved crystals were then measured at 570 nm on a 96-well microplate reader (Infinity M200, Tecan). Relative cell viability is calculated as:
# [formula] where At, Ac, and Ab represent absorbance values of wells containing tested cells, control cells and DMSO, respectively. In Vitro Release Assay (Timepoint Assay)
# [1] = Encapsulation of Dox and MNPs by coacervates; type: physicochemical; conditions: DgHBP-2-peptide coacervates
# Method: Dox (Final concentration: 0.04 mg mL^−1) and MNPs (Final concentration: 0.008% v/v) were first added to phosphate buffer (pH 9.5 0.1M) to their final concentrations. DgHBP-2 peptide stock solution (10 mg mL^−1) was successively added to the buffer/drug mixture in a 1:9 ratio to trigger encapsulation and coacervation. Gentle pipetting was then done to mix the final mixture.
# [2] = cited from earlier work
# [3] = Liquid-liquid phase separation by optical microscopy; type: physicochemical; conditions: for ability to undergo LLPS / phase separation: various pH and salt (NaCl) concentration
# Method: In Example 2 below, phase separation behavior of protein variants and peptides was studied using a Zeiss Axio Scope A1 microscope (Carl Zeiss Pte Ltd., Germany) in the reflection mode, with differential interference contrast (DIC) filters. Images were taken with an AxioCam MRc 5 camera under the control of AxioVision software.
# Liquid-liquid phase separation properties of protein variants and peptides at different buffer conditions were assessed using the method described in (Tan et al, Nat. Chem. Biol. 11, 488-495). Briefly, protein/peptide stock solution (10 mg/mL in 10 mM acetic acid, pH 3.3) was added to a buffer solution in a volume ratio 1:5 (protein/peptide stock:buffer). The mixture was then pipetted onto a microscopy glass slide and imaged using the optical microscope.
# [4] = Dynamic light scattering of GY-23 peptide; type: physicochemical
# Method: FIGS. 30A-30C. SAXS and DLS of GY-23 peptide. (A) SAXS experimental curves of the peptide before and after coacervation. After LLPS, the dilute and coacervate-rich phases were measured following centrifugation. The q-3 power-law region of the scattering data is highlighted, with the black line a guide for the eye. The calculated fit for the peptide assemblies from the IFT method is also presented as a continuous red line. (B) Corresponding p(r) profile calculated from the SAXS data in (A) using Eq. 1 (materials and methods). (C) Hydrodynamic diameter (DH) measured by DLS of GY-23 in acetic acid (pH 3.3) and after coacervation (pH 7.0).
# FIGS. 34A-34B Correlation functions of the DLS measurements of GY-23 peptide before and after coacervation (FIG. 33C) showing the intensity correlation function, C(τ) vs. the correlation time, τ. (A) Sample before coacervation (10 mM in acetic acid, pH 3.3). The curve with a single decay at short correlation times represents a monomodal distribution of rather small particles in the nanometer range. (B) Sample after LLPS (coacervation buffer, pH 7.0).
# [5] = Circular dichroism spectroscopy of insulin; type: physicochemical
# Description: Circular dichroism (CD) spectra was collected using a quartz cuvette of 0.2/0.5 mm optical pathlength. Data collection was done on AVIV 420 Circular Dichroism spectrometer with the following parameters: average of three scans per experiment between wavelength range from 190 to 250 nm, 1.0 nm wavelength steps with 1.00 nm bandwidth and 0.1 s averaging time. Each experiment was repeated for 3 times and averaged to obtain the final spectrum. The final spectrum was then smoothed and plotted using originPro9.1.
molecule,measurement,setting,value
"CC(C)C[C@H](NC(=O)CNC(=O)[C@H](Cc1c[nH]cn1)NC(=O)CNC(=O)[C@H](Cc1ccc(O)cc1)NC(=O)[C@@H]1CCCN1C(=O)CNC(=O)[C@H](Cc1c[nH]cn1)NC(=O)CNC(=O)[C@H](Cc1ccc(O)cc1)NC(=O)[C@@H]1CCCN1C(=O)CNC(=O)[C@H](Cc1c[nH]cn1)NC(=O)CNC(=O)[C@H](Cc1ccc(O)cc1)NC(=O)[C@@H](NC(=O)CNC(=O)[C@H](Cc1c[nH]cn1)NC(=O)CNC(=O)[C@H](Cc1ccc(O)cc1)NC(=O)[C@@H](NC(=O)CNC(=O)[C@H](Cc1c[nH]cn1)NC(=O)CN)C(C)C)C(C)C)C(=O)N[C@@H](Cc1ccc(O)cc1)C(=O)N[C@@H](Cc1c[nH]c2ccccc12)C(=O)O [DgHBP-2 peptide, GHGVYGHGVYGHGPYGHGPYGHGLYW] (H-GHGVYGHGVYGHGPYGHGPYGHGLYW-OH)",cytotoxicity,NIH3T3 mouse fibroblasts,negligible
"COc1cccc2c1C(=O)c1c(O)c3c(c(O)c1C2=O)C[C@@](O)(C(=O)CO)C[C@@H]3O[C@H]1C[C@H](N)[C@H](O)[C@H](C)O1 [Dox, Doxorubicin]",encapsulation efficiency of Dox,[1],~40%
same,unencapsulated Dox,[1],60%
same,pKa,[2],~8.46
GHGLY GAGFA GHGLH GFA GHGLY (GHGLYGAGFAGHGLHGFAGHGLY) [GY-23],morphology of the separated phase,[3]; optical micrographs after LLPS,coacervate micro-droplets suspended in solution as well as a dense hydrogel-like structure; also recorded: micro-droplets as well as hydrogel-like condensed coacervates
same,ability to undergo LLPS / phase separation,[3],phase-separated
same,hydrodynamic diameter (DH),"[4]; acetic acid (pH 3.3), before LLPS",ca. 8 nm
same,hydrodynamic diameter (DH),"[4]; pH 7.0, initiation of LLPS",around 50 nm
insulin [reference compound],CD: secondary structure,[5]; pH 5.5 to 7.5,not disrupted
released insulin: insulin released from dissociated coacervates,CD: characteristic minima of α-helices at 208 and 222 nm,[5]; after coacervation and release,still visible
B1,ability to undergo LLPS / phase separation,[3],only the C-terminal fragment phase-separated
